This data set can be described thus: soluble on expression in E. coli; label from the status in PepcDB or PDB records.
Regarding “MYEGEIAIGPVHSTMLEPHRLRLFIEDEIVKDAELTIGVNHRGVERLMEGLPVEKACILCEKICGICSHIHLWSAARVAEIGCNIEVPERANHIRIIVEELERLHSHTLLFGHAFEILGHETMSMRCFMLREPIMQVFFEISGSRVHYSCPIIGGIRPRCNISETQISHIHDKISQYEEGLTKFIERMLNDPMIISRVKDVGVMDRKTAAKFHAVGPTARGSNVKSDMRKWGWVPEYDPYDFDEILFDSGDVFARLAVRFYECLESVKIIRQALDALKDTSDKRIYNPNYELNEFKPINCYTEAQRGEQYYSYGLDDEGLVRQAKIRTPTATNLGAMEDIVKGYHVSDAELIIASCDPCFTCTDRLMVLKEPFKK”, the “soluble on expression in E. coli” value is reported as “not soluble”.

For the sequence “MYEIPWSKPVNINMLDGRCRTVVGPLDAMHCLQSEWPVRDGAYYGCAIRACNAALKRRKRPEDARAAFIAALREAFLTVVPMQEEGHGPRPLE”, the “soluble on expression in E. coli” value is reported as “not soluble”. Take “MYGTEQVISGTIIAGPELDPIEGYICVKNGIITEIGEEHTYSANIIAPCFVNAHTHLGDSVCKDPPLGKTSGFRVQKDLDSLVKPPDGLKHRILRDTSYKTLIQYIRKSLLDMIETGTCAFADFREGGVVGLAALNKALEGLNLHSLIFGRPTEPQLPLEVVLAEVRRVLSHSDGLGMSGANDLDMELLQEMTTCTRDRKKLFAIHAGEKNRSDIEKALSLEPDLLIHLTHATKKDLEDVAQTGAPVVVCPRSNFVTGSGMAPIAEMLEAEIRVAAGTDNVMLNSVNMFAEMEFMSKVFSIEDRQVFKICTLNGSFVMGPDSTGSIEKGNKANLMILNGSSNNLAGIKDPISGITKRARPDDILAVLHS”: the “soluble on expression in E. coli” value was “soluble”.

For “MYIMKQSGWLELICGSMFSGKSEELIRRVKRATYAKQEVRVFKPVIDNRYSEAAVVSHNGTSMTSYAISSAADIWDHISESTDVVAVDEVQFFDQEIVEVLSSLADKGYRVIAAGLDMDFRGEPFGVVPNIMAIAESVTKLQAVCSVCGSPASRTQRLIDGKPASYDDPVILVGAAESYEARCRHHHEVPGKSKKLEHHHHHH”, the “soluble on expression in E. coli” value was “soluble”. For the sequence “MYIPNAFRESDTHNLQEHMDKTRLAILVTQGDDGLHATHLPLLLRSDEGPYGTLYGHMAKANPQWQQLNADAEAMVIFPGEDAYVSPSFYPSKAEHGKVVPTWNYLAVHAYGQAECFTDPDRLHQLLNDLTDRHESSRAQPWSINDAPADYIAKMLGAIVGFSIPVQRLQGKRKLSQNRSAEDMAGVRDGLGASHLANDQQIARLMSGWRPS”, the “soluble on expression in E. coli” value is given as “not soluble”. Next, “MYIQILGSAAGGGFPQWNCNCVNCAGFRDGSLRAQARTQSSIALSDDGVNWVLCNASPDIRAQLQGFAPMQPGRALRDTGISAIVLMDSQIDHTTGLLSLREGCPHQVWCTDMVHEDLSTGFPLFEMLKHWNGGLNWNRIELQGSFVIPACPNLRFTPFPLRSAAPPYSPHRFDPHPGDNIGLLVEDTRTGGKLFYAPGLGKVDEALAEKMRDADCLLVDGTMWDDDEMQRRGVGTRTGREMGHLAQNGPGGMLDVLEGFPEQRKVLIHINNTNPILDEDSPERAELVRRNVEVAFDGMSIELLEHHHHHH”: “soluble”; “MYKLDLPTLMDAFHKVFHVSMLRKCITHQENVISEPPPDLLENMMIVGMLIPNLLGVSSEMVGR”: “not soluble”; “MYLSHFGFRVQPFSLTPNTEMFLGLVPHYEAIQTILAAVQMGEGVIKVTGEVGTGKTMVCRKLIEQIESQVELVYLPNPVLNGEQLQFAVARELGIDNDDPLRIVSLIQEHLIRVHSTGKKTVLIVDEAQALSPEALETLRLFGNLETEQDKLIQLVLFGQPELDERLSMHELRQFRQRITFSCGLRPLSVDEGVAYINNRLDKAGNGAHIFSIEQKKAIWRSAMGIPRLINQISHKALLAAFNDRCTLLKNHHVYAAMHDTFDARKPKFKTPVFWGWSQPLEHHHHHH”: “not soluble”. Under “MYNGYADVDDLHVYVYCGNTPELRLQELVADVKITIQPENEKSCCIKKFLSLKDNKFESIAMSADFGDFDEMVYNYAIDGKCTIEADITIIKEVGDARAKLRDFGEETRDVSDVVINVQNEKFHVSKMFLAAQSSHFKLLFKNSNDSEIALDGIIPEDFQNFLELLYGEPALTEDSVEGILQIAARFDVSTVIRKGEDFLLQKSEFSPEKKLQMSLKYNLENLKSKCLSEVKSVADIRSVLPKDIKEMDHSVMAELLEKSLGLQKT” stands “not soluble”; under “MYNNEPGAQSDPTLGYTFQNDFLALSQAFSLPEIDYTDISQREQLAAAIKRWPLLAEFAQPHSLRKP”, “not soluble”; under “MYQVIKMYGDWEPWWFIDGWQDDIIDEQQFSDWQEALDYFNQEWQRMKAIFPSYHSQKNLLATFWEKEDKRWCEDCDEDLQQFHSLLLLKNKDIVPSNNYIPEFEQRNDSPQVAYLCKLNL”, “not soluble”. Consider “MYQVIKMYGDWEPWWFIDGWQDDIIDEQQFSDWQEALDYFNQEWQRMKAIFPSYHSQKNLLATFWEKEDKRWCEDCDEDLQQFHSLLLLKNKDIVPSNNYIPEFEQRNDSPQVAYLCKLNLLEHHHHHH”, for which the “soluble on expression in E. coli” value is “soluble”.

Turning to “MYQVITMYGDNEPWWFFDDWQEDIVQEKTFDNLTDAETYYVEVWQKLSQNYTYVNTKPNYLTAFWNDGEERWCEECDEDLQQYFGLALLENHHAVTFENKAEFTTISNHFGKTKFCKRKVILEHHHHHH”, the “soluble on expression in E. coli” value is given as “soluble”.

Regarding “MYSDSRKRSSDDLIDNSDESKKPKESRNLYCTLAAYGCRKGERADMQDTHIMLPKFDLGTEKSFLSRASFFAIFDGHAGPRAAEHCQSQMGKTVKEKLAKFSDFPTLTKSLKQTFTESYKAVDDGFLAIAKQNKPIWKDGTTATTMIILNNVIYVANIGDSRAVVARKKEDGSFAPVCLTVDHDPMSHDERMRIQKAGAVVKDGRINGVIEVSRSIGDLPFKSLGIISTPDLKKLTLTKNDL”, the “soluble on expression in E. coli” value is given as “not soluble”.

As to “MYSYADRLRAVELYIRLGKRLNTTIRQLGYPTKNALRGWYREYVQHLDLRTQPVARAPKYSEAQRQAALEHFRTHDRCISGTMRALGYPGRGTLTAWVREAFPEARTSMVGRSWHPGYSEEVRQAGVIGLCSGDESAQQVADRLGVSRPTLYSWKDQLLGHEASSSMKRRKANPKVPEREELERKLEALQRDVRQLQLEHDLLKKANELLKKGLGVDLLILSNREKTQLIDALKEVYRLPELLAQLRIARSSYFYHRARMCLADKYAAVRLSLAEIFEANRRCYGYRRLQASLARKSVIVSEKVVQRLMKQEHLAVARPRRRRFGSYLGEISPAPENLINRDFHADAPNVKWLTDITEFQIPAGKVYLSPIIDCFDGMVISWSIGTQPDAGLVNTMLDAAIGTVANGEERPIIHSDRGAHYRWPGWLTRISEARLVRSMSRKGCSQDNAACEGFFGRLKTELFYPRDWKAITIEQFVAEVDAYIRWYNEKRIKISLGSLSPVEYRQSLGLKLAAALEHHHHHH”, the “soluble on expression in E. coli” value is recorded as “soluble”.

As to “MYTLLLVDDEERMLDLLELYLAPNGYRCVKRRSGAEAIDYLRRHHADLVLLDVMMPELDGWETCRRIRSFSNVPIMMVTARDETADIVQGLKIGADDYVTKPFDEAELLARIEAVLRRTAGGRSAIRAAGLVWDEEEHTVRYEDKPIALTPKEFAILGLLLKHPNQVFSRGQIIASLWGYLADTEERTVDSHMKNIREKLRKAGFPADEYLQTVWGVGYKWEGRKS”, the “soluble on expression in E. coli” value is “soluble”. Under “MYVLIGGAGLIGQQLARQVLDQGHTVAVIDQDPQVCKMVRDRLGAMAFEGSAVNTDILLEAGICRADAVAAVLRQDALNLALVTLACHYGVSRIISRISQQDFIEPMRLAGAHHIISTVDLVVSTMVNAIECPQVESMLHFEQGQIEVFKLTLDSQSPVIGRSVAAIAQDRNFPSSSLIIGYQSHPQADLVIPSGNTVLEANATVLLATKPGLVQSLVNFLMPSLFSPLQPAGVLHQLEHHHHHH” stands “soluble”; under “NFTHVKGSVGSNSQYVGQVDSSMAFSDKVNGRINLEYRQADSYVDHVDSNDFFIAPTIRVLPADGHTIDIDVEYAHQELVPYRGVPSKNGKPVDLPVSTYFGGTNDYQESDSLRVAVDYEWRLNDQWVWNNRAAFNHIELEQKGTRQGKVTGNEVSQTVNNFGYDPRTTTTLQSELIWETNDNQLMLGADFNQIDIDLTLASDKTLPPQNIYNPVVGPTPDPGFKPFRDNTTTTTGVYVQDVYTWGDLSVIGNVRYDSMELEQQKAGSGKEKLDDDKVSYRAGLVYRINYDTSVYASLARSWQLPYAGIYINPKLAEFFHTDLKEVGAKAYLLDNALMLNAALFQIDQEQPQTNVDGDVIDKIEVRHQGIELEARGQITKQWDISVGYSYLDAEDKATGKKPNDVSDHLFSLWSTYQLDDNWRLGGGVKYVGDRYAGNDEAVALGDYTTVDLMAAYTTGRHKIQANAYNILDEKYILGATNGTSGLNQIGYGAPAEFMLSYGYQF”, “not soluble”; under “NGFDREMRTRILGMVPQATVESYQPIDDWRALAEKVKAHEHVTAVAPFTQMQGMLSANGAVQTVMVDAVDPLEEAKVSIIPDFFKQGSLAELKAGGFGIVIGQLAAQKLGVGIGDKVTLILPEVAVTPAGVFPRMKRFTVVGTFRVGAGELDGGLSLIHLEDAARLQRWKTNQVQGLRLKLDDLFQAPRVAWEIARTLTDNDFYARDWTRSHGNLYQAIRMEKT”, “not soluble”.

For the sequence “NKGKDITSWVNKALDAIAALFSAKTWKRKPKMKVHYGNNTRQNDYDYNARKKAQSDEIDRILDKLKKSGYESLTTEEKKSLFDASKR”, the “soluble on expression in E. coli” value is “not soluble”. Next, “NKYFENVSKIKYEGPKSNNPYSFKFYNPEEVIDGKTMEEHLRFSIAYWHTFTADGTDQFGKATMQRPWNHYTDPMDIAKARVEAAFEFFDKINAPYFCFHDRDIAPEGDTLRETNKNLDTIVAMIKDYLKTSKTKVLWGTANLFSNPRFVHGASTSCNADVFAYSAAQVKKALEITKELGGENYVFWGGREGYETLLNTDMEFELDNFARFLHMAVDYAKEIGFEGQFLIEPKPKEPTKHQYDFDVANVLAFLRKYDLDKYFKVNIEANHATLAFHDFQHELRYARINGVLGSIDANTGDMLLGWDTDQFPTDIRMTTLAMYEVIKMGGFDKGGLNFDAKVRRASFEPEDLFLGHIAGMDAFAKGFKVAYKLVKDRVFDKFIEERYASYKDGIGADIVSGKADFRSLEKYALERSQIVNKSGRQELLESILNQYLFAE”: “soluble”; “NLKVKGARDVFEYMKGRIPDETKEHLFVLFLSTKNQILRHETITIGTLTASLIHPREIFKAAIRESAHSIILVHNHPSGDVQPSNADKQVTSILKKAGDLLQIELLDHVIVGNNDWFSFRDHALL”: “soluble”; “NLNKVKFTEEHAIEVTNWKYEGKYSIYNLPPWEEIKKKNFSLAKEDKRKNFISFINDNKELIGFINLLDEGSSVFFGIGMKPNYCGMGIGKEIISLRLQECRNKYSTKPIVLNVRTWNMRAVKCYESQGFKIVETKVQKTH”: “not soluble”. Consider “NMRQVLKTDRLVLEPQSMARFDQWFAMERQRDEAGHRDLTEDQAWLRLCARQGMWDAYACGFYYLLDPVSGEMRGEAGFQFRRRGFGPGFDNHPEAAWAVASAHQGRGLAAEAMQALLAHHDRSSGRQRVVALIARSNLPSLRLAERLG”, for which the “soluble on expression in E. coli” value is “not soluble”. Under “NNDSWKPWSLPLSGKIIYLDPGHGGPDGGAVGGKLLEKDVTLEVAFRVRDYLQEQGALVIMTRESDTDLAPEGTKGYSRRKAEDLRQRVKLINHSEAELYISIHLNAIPSQKWSGAQSFYYGKYAENEKVAKYIQDELRRNLENTTRKAKRIHGIYLMQNVTKPGALIEVGFLSNPSEATLLGKPKYQDKVASSIYKGILRYFTEKGDPPE” stands “not soluble”.

(Values after the DeepSol protein solubility set.)
